From PMC8464517

Molecular target: T1, GLUT1 (Homo sapiens), P11166
T1 chain: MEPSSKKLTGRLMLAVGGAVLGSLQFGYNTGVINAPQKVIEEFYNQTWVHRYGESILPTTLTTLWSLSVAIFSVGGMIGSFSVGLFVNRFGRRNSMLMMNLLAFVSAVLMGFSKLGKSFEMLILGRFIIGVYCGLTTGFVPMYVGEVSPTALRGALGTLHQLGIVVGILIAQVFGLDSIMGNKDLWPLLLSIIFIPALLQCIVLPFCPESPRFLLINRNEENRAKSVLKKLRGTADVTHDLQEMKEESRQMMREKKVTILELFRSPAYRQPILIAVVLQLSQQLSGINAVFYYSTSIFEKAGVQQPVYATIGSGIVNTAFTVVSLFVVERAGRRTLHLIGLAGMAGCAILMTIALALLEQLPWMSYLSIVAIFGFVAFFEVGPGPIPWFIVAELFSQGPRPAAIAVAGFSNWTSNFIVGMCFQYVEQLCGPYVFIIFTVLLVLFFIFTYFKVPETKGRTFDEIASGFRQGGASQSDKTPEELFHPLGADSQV
Assay: ITC
Details: PIP2/MSP1E3 nanodisc; remark: other sources report otherwise

Kd: 3.8 µM
B1: TXNIP, Q9H3M7 (protein)
chain: MVMFKKIKSFEVVFNDPEKVYGSGEKVAGRVIVEVCEVTRVKAVRILACGVAKVLWMQGSQQCKQTSEYLRYEDTLLLEDQPTGENEMVIMRPGNKYEYKFGFELPQGPLGTSFKGKYGCVDYWVKAFLDRPSQPTQETKKNFEVVDLVDVNTPDLMAPVSAKKEKKVSCMFIPDGRVSVSARIDRKGFCEGDEISIHADFENTCSRIVVPKAAIVARHTYLANGQTKVLTQKLSSVRGNHIISGTCASWRGKSLRVQKIRPSILGCNILRVEYSLLIYVSVPGSKKVILDLPLVIGSRSGLSSRTSSMASRTSSEMSWVDLNIPDTPEAPPCYMDVIPEDHRLESPTTPLLDDMDGSQDSPIFMYAPEFKFMPPPTYTEVDPCILNNNVQ
